From US20040137592

How the values were obtained:
HA tagged hUpf1/SMG-2 = HA tagged hUpf1/SMG-2 (UniProt Q92900)
[1] = tested on: hUpf1/SMG-2 fusion protein (S1096) [GST: P08515]
[2] = tested on: GST fusion protein including S1078 (14mer peptide of hUpf1/SMG-2) [GST: P08515]
[3] = tested on: fusion protein of the 14mer peptide (control) including S15 in the p53 protein and GST [GST: P08515]
[4] = biological target: MBP fusion protein of the hUpf1/SMG-2 partial fragment at the N-terminal side (UniProt Q92900)
[5] = biological target: MBP fusion protein of the hUpf1/SMG-2 partial fragment at the C-terminal side (UniProt Q92900)

## 6H-hSMG-1 (fusion protein of human SMG-1 partial fragment 107-3657 and His tag)
HA tagged hUpf1/SMG-2
  phosphorylation of substrate (in vitro kinase assay, 32P autoradiography): purified 6H-hSMG-1 phosphorylated HA-hUpf1/SMG-2
[1]
  phosphorylation of substrate (in vitro kinase assay, 32P autoradiography): the GST fusion protein including S1078 or the GST fusion protein including S1096 ... was efficiently phosphorylated by 6H-hSMG-1
[2]
  phosphorylation of substrate (in vitro kinase assay, 32P autoradiography): the GST fusion protein including S1078 or the GST fusion protein including S1096 ... was efficiently phosphorylated by 6H-hSMG-1
[3]
  phosphorylation of substrate (in vitro kinase assay, 32P autoradiography): the control construct encoding the SQ motif in the p53 protein was phosphorylated by hSMG-1
[4]
  phosphorylation of substrate (in vitro kinase assay, 32P autoradiography): the fragments of hUpf1/SMG-2 at the C-terminal side and at the N-terminal side performed the role of good substrates for hSMG-1
[5]
  phosphorylation of substrate (in vitro kinase assay, 32P autoradiography): the fragments of hUpf1/SMG-2 at the C-terminal side and at the N-terminal side performed the role of good substrates for hSMG-1
